Results: patent US20090186816

What was measured:
[1] = tested on: F-ZFPNARP-meth-NES (ZFPNARP fused to human DNMT3a catalytic domain residues 592-909) (synthetic construct); assay: cell_activity
[2] = tested on: F-ZFPcont-meth-NES (ZFPcont fused to human DNMT3a catalytic domain residues 592-909) (synthetic construct); assay: cell_activity; details: NARP cells; scale: fold lower CpG methylation than F-ZFPNARP-meth-NES

Sequence | activity ([1]; wt cells, indistinguishable from background, scale: fold lower CpG methylation than on NARP site) | activity (% of clones with CpG methylation) ([1]; bisulfite sequencing around site in NARP cybrid cells, CpGs within site protected) | activity [2]
GCCCTGGCC (double strand) [wild-type mtDNA 8993 site] | 6 |  | 
GCCCGGGCC (double strand) [NARP T8993G mtDNA site] |  | 23 | 6
